Data reported in patent US20230064703A1 (NANJING GENSCRIPT BIOTECH, published 2023).
Residue numbers refer to the chain shown, from its start.

B1: humanized antibody 45F1F3 VH1.4 + VL1.1 (antibody, V domains shown)
VH: DVQLQESGPGLVKPSQTLSLTCTVTGYSITIDYAWNWIRQPPGKGLEWMGYISNSGYTSYNPSLKSRITFSRDTSKNQFFLKLSSVTAADTAVYYCTRSGHYDLFDYWGQGTTVTVSS
VL: DVVMTQSPLSLPVTLGQPASISCKSSQSLFDRDGKTYLSWLLQRPGQSPRRLIYLVSNLDSGVPDRFSGSGSGTDFTLKISRVEAEDVGVYYCWQGTHFPYTFGGGTKVEIK
B2: chimeric antibody 45F1F3 (human IgG1) (antibody, V domains shown)
VH: DVQLQESGPGLVKPSQSLSLTCTVTGYSITIDYAWNWIRQFPGNKLEWMGYISNSGYTSYNPSLKSRISFTRDTSKNQFFLQLNSVTPEDSATYYCTRSGHYDLFDYWGQGTTLTVSS
VL: DVVMTQAPLTLSVTIGQPASISCKSSQSLFDRDGKTYLSWLLERPGQSPKRLIYLVSNLDSGVPDRFTGSGSGTDFTLKISRVEAEDLGVYYCWQGTHFPYTFGGGTKVEMKR
B3: humanized antibody 45F1F3 VH1.3 + VL1.1 (antibody, V domains shown)
VH: B1 VH with D1Q, I68V, F70I
VL: B1 VL
B4: humanized antibody 270C5C10 VH1.2 + VL1 (antibody, V domains shown)
VH: QVQLVQSGAEVKKPGASVKVSCKASGYTFTDNYMNWVRQAPGQSLEWIGDINPNNGGSRYKEKFKDRATLTVDTSIRTAYMELSRLRSDDTAVYYCANPGSYGFAYWGQGTLVTVSS
VL: B1 VL with F30L, R32S, K35R, S39N, L41F, L42Q, N58Q, Y101W, V109L
B5: humanized antibody 270C5C10 VH1.4 + VL1 (antibody, V domains shown)
VH: B4 VH with V37A, A40S
VL: B1 VL with F30L, R32S, K35R, S39N, L41F, L42Q, N58Q, Y101W, V109L
B6: chimeric antibody 225H7D12 (human IgG1) (antibody, V domains shown)
VH: QVQLQQSGAEVMKPGASVKLSCKTTGYRFTGYWIEWVKQRPGHGLEWIGEILPGSGVSNNNEKFRDKATFTADTSSNTAYIQLSSLTTDDSAIYYCARKASYYTMDYWGQGTSVTVSS
VL: QIVLTQSPAIMSASLGERVTMTCTASSSVSSFYFHWYQQKPGSSPKLWIYSISNLASGVPTRFSGSGSGTSYSLTISSMEAEDAATYYCHQYHRSPRTFGGGTKLEIKR
B7: humanized antibody 225H7D12 VH1.1 + VL1.2 (antibody, V domains shown)
VH: QVQLVQSGAEVKKPGASVKVSCKTTGYRFTGYWIEWVRQAPGQGLEWIGEILPGSGVSNNNEKFRDRATMTADTSISTAYMELSRLRSDDTAVYYCARKASYYTMDYWGQGTLVTVSS
VL: DIQMTQSPSSLSASVGDRVTITCTASSSVSSFYFHWYQQKPGKAPKLWIYSISNLASGVPSRFSGSGSGTSYTLTISSLQPEDFATYYCHQYHRSPRTFGGGTKLEIK
B8: humanized antibody 225H7D12 VH1.3 + VL1.2 (antibody, V domains shown)
VH: B7 VH with T24A, T25S, R38K, S77N
VL: B7 VL
B9: humanized antibody 225H7D12 VH1.4 + VL1.2 (antibody, V domains shown)
VH: B7 VH with R38K, M70F, S77N
VL: B7 VL
B10: chimeric antibody 270C5C10(Ha-L) (human IgG1) (antibody, V domains shown)
VH: EVQLQQSGPEVVKPGASVKISCKASGYTFTDNYMNWAKQSQGKSLEWIGDINPNNGGSRYKEKFKDKATLTVDKSSRTAYMELRSLTSEDSAVYYCANPGSYGFAYWGQGTLVTVSA
VL: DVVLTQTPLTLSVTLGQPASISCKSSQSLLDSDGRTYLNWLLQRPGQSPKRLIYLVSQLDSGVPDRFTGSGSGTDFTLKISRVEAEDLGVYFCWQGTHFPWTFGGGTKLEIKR
B11: anti-GITR mouse monoclonal antibody 223F12C4 (antibody, V domains shown)
VH: QVQLQQSGAELVKPGASVKVSCKASGYSFTSYWIHWVKQRPGQGLEWIGRIHPSDGDIDHNEKFKGKATLTVDKSSSTAYMQLTSLTSEDSAVYYCLCYIMDYWGQGTSVTVSS
VL: DIQMNQSPSSLSASLGDTIAITCHASQNINVWLSWYQQKPGNIPKLLIYKAAKLQTGVPSRFSGSGSGTGFTLTISSLQPEDIATYYCHQGQDYPLTFGAGTKLELK
B12: anti-GITR mouse monoclonal antibody 45F1F3 (antibody, V domains shown)
VH: B2 VH
VL: B1 VL with S7A, S10T, P12S, L15I, Q43E, R50K, S68T, V88L, I111M
B13: anti-GITR mouse monoclonal antibody 225H7D12 (antibody, V domains shown)
VH: B6 VH
VL: QIVLTQSPAIMSASLGERVTMTCTASSSVSSFYFHWYQQKPGSSPKLWIYSISNLASGVPTRFSGSGSGTSYSLTISSMEAEDAATYYCHQYHRSPRTFGGGTKLEIK
B14: anti-GITR mouse monoclonal antibody 134D7B3 (antibody, V domains shown)
VH: QVQLQQSGAELVRPGTSVKVSCKASGYAFNNYVIEWVKQRPGQGLEWIGVIYPGNGGSDYNEKFKVKAKLTADKSSSTAYMQLSSLTSDDSAVYFCARFYYFGSSYAMDYWGQGTSVTVSS
VL: DIQMTQTTSSLSASLGDRVTISCRASQDISNYLNWYQQKPDGTIKLLIYYTSRLHSGVPSRFSGSGSGTDYSLTITNLEQEDIATYFCQQGNTLPFTFGSGTKLEIK
B15: anti-GITR mouse monoclonal antibody 163H12G7 (antibody, V domains shown)
VH: QVQLQQSGAELASPGASVKMSCKASGYTFSTYTVHWVKQRPGQGLEWIGYINPASGYTNYNQKFKDRATLTADRSSTTAYMQLSGLTSEDSAVFYCARWSYWYFDVWGTGTTVTVSS
VL: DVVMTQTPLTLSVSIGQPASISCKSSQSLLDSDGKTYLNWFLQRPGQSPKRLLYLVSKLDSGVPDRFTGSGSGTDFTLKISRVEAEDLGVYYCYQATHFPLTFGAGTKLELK

Each binder was assayed against T1, GITR expressed on the effector cell line of the reporter gene assay (assay: cell-based or functional assay).

| EC50, GITR functional reporter gene assay (GenScript, NFkB luciferase) [µg/mL] | Binder |
| --- | --- |
| 1.09 | B1 |
| ~1.09 | B2 |
| 1.08 | B3 |
| 0.0745 | B4 |
| ~0.0355 | B5 |
| 1.26 | B6 |
| 1.17 | B7 |
| 1.18 | B8 |
| 1.46 | B9 |
| ~0.0374 | B10 |

Target: T1, GITR expressed on the effector cell …
Test: cell-based or functional assay
Remark: another data set of the same source

| Bottom, GITR functional reporter gene assay | EC50, GITR functional reporter gene assay [µg/mL] | LogEC50, GITR functional reporter gene assay | Span, GITR functional reporter gene assay | Top, GITR functional reporter gene assay | Binder |
| --- | --- | --- | --- | --- | --- |
| 16300 | 0.0145 | -1.84 | 32000 | 48300 | B2 |
| 16800 | 0.0796 | -1.1 | 37000 | 53800 | B6 |
| 18000 | 0.386 | -1.41 | 31500 | 49500 | B10 |

Target: T1, GITR expressed on the effector cell …
Test: cell-based or functional assay
Remark: another data set of the same source

| EC50, GITR functional reporter gene assay (luciferase) [µg/mL] | Binder |
| --- | --- |
| 0.151 | B11 |
| 0.0145 | B12 |
| 0.0796 | B13 |
| 1.05 | B14 |
| 0.0137 | B15 |
